Measured values as given in patent publication US20240374744.

Tested on: huHF(+)-DOX (huHF(+) protein nanoparticle-doxorubicin conjugate)
Sequence (chain, as listed by the source): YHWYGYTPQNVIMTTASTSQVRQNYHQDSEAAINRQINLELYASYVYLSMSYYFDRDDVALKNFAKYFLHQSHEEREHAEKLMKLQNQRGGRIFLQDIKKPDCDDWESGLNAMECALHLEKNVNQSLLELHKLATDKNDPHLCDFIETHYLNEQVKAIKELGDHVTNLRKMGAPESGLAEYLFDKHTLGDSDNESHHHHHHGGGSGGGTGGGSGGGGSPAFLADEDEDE

cathepsin B
cleavage of the conjugate and release of doxorubicin (native-PAGE, UV absorbance), enzyme in LPM mixture: it was observed that the peptide was not specifically cleaved thereby the drug was not selectively released

cathepsin D
cleavage of the conjugate and release of doxorubicin (native-PAGE, UV absorbance), enzyme in LPM mixture: it was observed that the peptide was not specifically cleaved thereby the drug was not selectively released

cathepsin E
cleavage of the conjugate and release of doxorubicin (native-PAGE, Coomassie staining, UV absorbance of doxorubicin): From 3 hours after staining, it was visually observed that the portion to which the anticancer drug was bound in the conjugate was effectively cleaved by cathepsin E

cathepsin L
cleavage of the conjugate and release of doxorubicin (native-PAGE, UV absorbance), enzyme in LPM mixture: it was observed that the peptide was not specifically cleaved thereby the drug was not selectively released
